Assay: yeast display, Sf9 membrane polyspecificity reagent, FACS + sequencing; frameworks hold sequencing errors
Outline: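 Polyreactivity labels are assigned by the sorting gate from which each nanobody was recovered. The gates were low and high (top ~1%), set on anti-HA fluorescence for expression and streptavidin fluorescence for reagent binding. Before sorting, galactose-induced (36–48 hours) yeast display cells were stained for 1 hour at 4 °C with 10% biotinylated, detergent-solubilized Sf9 membrane reagent.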

Sequence | polyreactivity (PSR sort gate)
QLQLEESRGGLVQAGGSLRLSCAASGGTCFSYAMGCYRQAPGKERELVAGIRNGGSTKYADSVKGRFTISRDNAKNTVYLQMNSLNPEDTAVYYCAARYYRPYTSSWAHNYRLDYCGQGTQVTVSS | high polyreactivity
QLQLGESGGGLVQAGASLRLSFAPSGRLFDRYAMGWYRTAPATERELVASIRSGGSTNYADSVKGRFTISRDNAKNTGYLQMNSLNPEDTAVYYCAAVLRPVRFYSGYYYWGQGTQVTVSS | high polyreactivity
QLQLHESGGGLVQAGGGLRLICAASGSISSTVFMGWYRQAPGKEREPVAAIAPCTTTYYADSLKGRFTISRDNAKNTVYLQKNSLRPEDTAVYYCAVFTDNRVAFLYWGQGTQVTLSS | low polyreactivity
QLQLQESGGGLVQAGGSLRLSCAESGTIFGWDRMGRYRQAPGKERELVATIDNRGSTNYADSVKGRFTISRDNAKNTLFPQMNSLKPDDTEVYYCAVVGPTPQYHLYWGEGTQVTVSS | high polyreactivity
QLQLVESAGGLVQAGGSLRLSCAASGIIFSYYAMGWYRKAPGKERELVAAISWSGGSTYYADSVKGRFTISRDNAKNTVYLQLNSLKPEDTAVYYCAADDYLAYEYWGQGTQVTVSS | high polyreactivity
QLQLVESGGGIVQAGGRLRLSCAASGLIFYLYAMGWYRQAPGKERELVATITTGGRTNYADSVKGRFTISRDNAKISVYLQMNSLTPVDTAVYYCAATHRGQGGYYWGQGSQVTVSS | low polyreactivity
QLQLVESGGGIVQAGGSLRLSCAASGSTFLRNAMGRYRQAPGKKGSGVATISYDGYSTYYADSVKGRLTISRDNAKNSFYLQMNSLKPEDTAVYYCAASYSLTFWDKDDYWGQGSQVTVSS | low polyreactivity
QLQLVESGGGLDQAGGSLRLSCAASAFTFGYYSKGWNRQAPGKQTELVASISRSGGSTNYADSVKGRFTISRDNAKKTVYLQMNSLIPEDNAVYYCNNRVNTYRSVSRRYDYWGQGTQVTLSS | high polyreactivity
QLQLVESGGGLVQAGARLRLSCAASGSIFRFNPMGWYIPAPGKERELVAAITSSGDSTYYADSVKGRFTISRDNAKYTVYLQMNCLKPEDTAVSDCAAVRNRFIGWTVRYNWARIYNYWGQGTQVTVSS | high polyreactivity
QLQLVESGGGLVQAGCSLRLSFAASVIICWANAMGCYIHAPGKERELVASITSGGSTYYADSVKGRFTISRDNAKTTVYFQMNSLKPEDTAVYYCAADPYGWWDWHTLGTYDYWGQGTQVTVSS | low polyreactivity
QLQLVESGGGLVQAGGRLRLTCAASGRTFPYYFMGWYRPAPGKERELVAAINSGGRTNYADSVKGLFTISRDNAKNTVYLQMNSLKPEDTAVYYCTKRGHPARLGYYYWGQGTQVTVSS | low polyreactivity
QLQLVESGGGLVQAGGSLRISCAASGFTFRYYAMGWYRQAPGKERKFVAGIDFGAITNYADSVKGRFTISRDNAKNTEYLQMSSLKPEDTAVYYCAAGVYDWYAYDYWGQGTQVTVSS | high polyreactivity
QLQLVESGGGLVQAGGSLRLICAASGLIFFWYTMGWYRQAPGKDRELVAAIDSGGSTYYADSVKGRFTNSRDNAKYTVYLEMISLKPEDTAVYYCAADSFYLYIEYYYWGQGTQVTVSS | high polyreactivity
QLQLVESGGGLVQAGGSLRLICAASGRIFATYAMGWYRQAPGKEREFVAAITKGGVRTYYADSVKGRFTISRDNAKNTVYLQMNSLKPEDTAVYYCAADAWVRGRYPYGYDYWGQGTQVTVSS | low polyreactivity
QLQLVESGGGLVQAGGSLRLRCAASGRIFVRYAMGWYRQEPGKERELVAAISTRGGSTYYADSVKGRFTISRDKAKNTVYLQMNSLKAEDTAVYYCASGPRPRPSDYWGQGTQVTGSS | high polyreactivity
QLQLVESGGGLVQAGGSLRLRCAASGRTFIRYAMGWYRPAPGKERELVAAISSRGGRTHYADSVKGRFTISRDNAKNTFYFQMNSLKPEDTAVYDCAADLNYGTVPGASYDYWGQGTQVTGSS | low polyreactivity

From the nanobody polyreactivity screen of Harvey et al. (2022)
